Results reported in the supplement of paper PMC9112550, “Optimization of the antimicrobial peptide Bac7 by deep mutational scanning” (BMC Biology, 2022).

Test system: Escherichia coli TOP10
Experiment: shrunken log2 fold change of peptide-encoding DNA abundance (4.5 h post-induction vs induction); higher = less antimicrobial activity (less host growth inhibition)
Settings: time post-induction: 4.5 h; library: site-saturation at positions 5, 18, 19, 20
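Note: peptides expressed intracellularly from a pBAD plasmid library in pooled LB shake-flask culture, induced with 0.3% L-arabinose, DNA abundance read by NGS, three biological replicates, DESeq2 with apeglm shrinkage.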

| Sequence | shrunken log2 fold change |
| --- | --- |
| RRIRYRPPRLPRPRPRPNKGPRP | -0.618 |
| RRIRYRPPRLPRPRPRPNKIPRP | -0.995 |
| RRIRYRPPRLPRPRPRPNLEPRP | -0.113 |
| RRIRYRPPRLPRPRPRPNLYPRP | -0.658 |
| RRIRYRPPRLPRPRPRPNMDPRP | -1.3 |
| RRIRYRPPRLPRPRPRPNMNPRP | -0.882 |
| RRIRYRPPRLPRPRPRPNMPPRP | -0.304 |
| RRIRYRPPRLPRPRPRPNNCPRP | -0.0707 |
| RRIRYRPPRLPRPRPRPNNIPRP | -1.24 |
| RRIRYRPPRLPRPRPRPNNRPRP | -0.00509 |
| RRIRYRPPRLPRPRPRPNNYPRP | -1.22 |
| RRIRYRPPRLPRPRPRPNPCPRP | -0.0242 |
| RRIRYRPPRLPRPRPRPNPLPRP | -0.766 |
| RRIRYRPPRLPRPRPRPNPRPRP | -0.123 |
| RRIRYRPPRLPRPRPRPNQSPRP | -0.268 |
| RRIRYRPPRLPRPRPRPNQVPRP | -0.0141 |
| RRIRYRPPRLPRPRPRPNQYPRP | -1.18 |
| RRIRYRPPRLPRPRPRPNRMPRP | -0.22 |
| RRIRYRPPRLPRPRPRPNRTPRP | -0.211 |
| RRIRYRPPRLPRPRPRPNRYPRP | -0.499 |
| RRIRYRPPRLPRPRPRPNTPPRP | -0.179 |
| RRIRYRPPRLPRPRPRPNVCPRP | 0.00285 |
| RRIRYRPPRLPRPRPRPNWIPRP | -0.312 |
| RRIRYRPPRLPRPRPRPNWNPRP | -1.09 |
| RRIRYRPPRLPRPRPRPNWPPRP | 0.394 |

| Sequence | shrunken log2 fold change |
| --- | --- |
| RRIRYRPPRLPRPRPRPNWRPRP | 0.326 |
| RRIRYRPPRLPRPRPRPNWYPRP | -1.48 |
| RRIRYRPPRLPRPRPRPNYHPRP | -1.04 |
| RRIRYRPPRLPRPRPRPPADPRP | 0.115 |
| RRIRYRPPRLPRPRPRPPAGPRP | 0.322 |
| RRIRYRPPRLPRPRPRPPDPPRP | 0.179 |
| RRIRYRPPRLPRPRPRPPDSPRP | -0.0664 |
| RRIRYRPPRLPRPRPRPPEGPRP | -0.455 |
| RRIRYRPPRLPRPRPRPPEHPRP | -0.0551 |
| RRIRYRPPRLPRPRPRPPEPPRP | 0.35 |
| RRIRYRPPRLPRPRPRPPFKPRP | -0.554 |
| RRIRYRPPRLPRPRPRPPGAPRP | 0.397 |
| RRIRYRPPRLPRPRPRPPGPPRP | 0.455 |
| RRIRYRPPRLPRPRPRPPHFPRP | -0.139 |
| RRIRYRPPRLPRPRPRPPHHPRP | -0.668 |
| RRIRYRPPRLPRPRPRPPIQPRP | -0.589 |
| RRIRYRPPRLPRPRPRPPKVPRP | -0.149 |
| RRIRYRPPRLPRPRPRPPLIPRP | -0.185 |
| RRIRYRPPRLPRPRPRPPMMPRP | -0.836 |
| RRIRYRPPRLPRPRPRPPNKPRP | -0.585 |
| RRIRYRPPRLPRPRPRPPPQPRP | 0.776 |
| RRIRYRPPRLPRPRPRPPQWPRP | 0.204 |
| RRIRYRPPRLPRPRPRPPRQPRP | 0.0146 |
| RRIRYRPPRLPRPRPRPPRTPRP | -0.0112 |
| RRIRYRPPRLPRPRPRPPRYPRP | -0.226 |

| Sequence | shrunken log2 fold change |
| --- | --- |
| RRIRYRPPRLPRPRPRPPSMPRP | -0.692 |
| RRIRYRPPRLPRPRPRPPVAPRP | 0.0771 |
| RRIRYRPPRLPRPRPRPPVMPRP | -0.355 |
| RRIRYRPPRLPRPRPRPPWKPRP | 0.0467 |
| RRIRYRPPRLPRPRPRPPYHPRP | -0.82 |
| RRIRYRPPRLPRPRPRPPYQPRP | -0.369 |
| RRIRYRPPRLPRPRPRPPYSPRP | -0.45 |
| RRIRYRPPRLPRPRPRPQCCPRP | -0.18 |
| RRIRYRPPRLPRPRPRPQCKPRP | -1.34 |
| RRIRYRPPRLPRPRPRPQCNPRP | -0.269 |
| RRIRYRPPRLPRPRPRPQDSPRP | -0.0125 |
| RRIRYRPPRLPRPRPRPQENPRP | -0.00441 |
| RRIRYRPPRLPRPRPRPQESPRP | -0.0191 |
| RRIRYRPPRLPRPRPRPQFEPRP | -0.106 |
| RRIRYRPPRLPRPRPRPQFNPRP | -0.755 |
| RRIRYRPPRLPRPRPRPQGFPRP | -0.0121 |
| RRIRYRPPRLPRPRPRPQGMPRP | -0.0114 |
| RRIRYRPPRLPRPRPRPQHIPRP | -0.754 |
| RRIRYRPPRLPRPRPRPQHLPRP | -0.262 |
| RRIRYRPPRLPRPRPRPQHVPRP | -1.14 |
| RRIRYRPPRLPRPRPRPQIEPRP | 0.0413 |
| RRIRYRPPRLPRPRPRPQKQPRP | 0.00415 |
| RRIRYRPPRLPRPRPRPQLLPRP | -0.42 |
| RRIRYRPPRLPRPRPRPQLNPRP | -1.15 |
| RRIRYRPPRLPRPRPRPQMGPRP | 0.0669 |

| Sequence | shrunken log2 fold change |
| --- | --- |
| RRIRYRPPRLPRPRPRPQMHPRP | -0.748 |
| RRIRYRPPRLPRPRPRPQMPPRP | -0.205 |
| RRIRYRPPRLPRPRPRPQNVPRP | -0.389 |
| RRIRYRPPRLPRPRPRPQPAPRP | 0.0964 |
| RRIRYRPPRLPRPRPRPQPLPRP | -0.00898 |
| RRIRYRPPRLPRPRPRPQPPPRP | 0.163 |
| RRIRYRPPRLPRPRPRPQQCPRP | -0.145 |
| RRIRYRPPRLPRPRPRPQQIPRP | -0.142 |
| RRIRYRPPRLPRPRPRPQRDPRP | -0.256 |
| RRIRYRPPRLPRPRPRPQRHPRP | -0.48 |
| RRIRYRPPRLPRPRPRPQRLPRP | -0.131 |
| RRIRYRPPRLPRPRPRPQSDPRP | -0.251 |
| RRIRYRPPRLPRPRPRPQSIPRP | -0.0346 |
| RRIRYRPPRLPRPRPRPQWEPRP | -0.0193 |
| RRIRYRPPRLPRPRPRPQYCPRP | -0.361 |
| RRIRYRPPRLPRPRPRPQYGPRP | -0.161 |
| RRIRYRPPRLPRPRPRPRFPPRP | -0.448 |
| RRIRYRPPRLPRPRPRPRHDPRP | -0.237 |
| RRIRYRPPRLPRPRPRPRHIPRP | -0.767 |
| RRIRYRPPRLPRPRPRPRIIPRP | -0.457 |
| RRIRYRPPRLPRPRPRPRMEPRP | -0.0654 |
| RRIRYRPPRLPRPRPRPRNFPRP | -0.358 |
| RRIRYRPPRLPRPRPRPRNMPRP | -0.56 |
| RRIRYRPPRLPRPRPRPRPNPRP | -0.0554 |
| RRIRYRPPRLPRPRPRPRRFPRP | 0.256 |

| Sequence | shrunken log2 fold change |
| --- | --- |
| RRIRYRPPRLPRPRPRPRRGPRP | 0.114 |
| RRIRYRPPRLPRPRPRPRSRPRP | 0.07 |
| RRIRYRPPRLPRPRPRPRTFPRP | -0.757 |
| RRIRYRPPRLPRPRPRPRWDPRP | -0.0245 |
| RRIRYRPPRLPRPRPRPRWRPRP | 0.585 |
| RRIRYRPPRLPRPRPRPRYEPRP | -0.415 |
| RRIRYRPPRLPRPRPRPRYIPRP | -0.397 |
| RRIRYRPPRLPRPRPRPRYLPRP | -0.176 |
| RRIRYRPPRLPRPRPRPRYQPRP | -0.0935 |
| RRIRYRPPRLPRPRPRPRYTPRP | -0.0817 |
| RRIRYRPPRLPRPRPRPSASPRP | -0.071 |
| RRIRYRPPRLPRPRPRPSCHPRP | -0.0195 |
| RRIRYRPPRLPRPRPRPSCIPRP | -0.118 |
| RRIRYRPPRLPRPRPRPSEKPRP | -0.116 |
| RRIRYRPPRLPRPRPRPSFAPRP | -0.332 |
| RRIRYRPPRLPRPRPRPSFCPRP | -0.793 |
| RRIRYRPPRLPRPRPRPSFHPRP | -1.01 |
| RRIRYRPPRLPRPRPRPSGAPRP | -0.299 |
| RRIRYRPPRLPRPRPRPSGSPRP | -0.0607 |
| RRIRYRPPRLPRPRPRPSHFPRP | -0.411 |
| RRIRYRPPRLPRPRPRPSHHPRP | -1.2 |
| RRIRYRPPRLPRPRPRPSHSPRP | -0.0971 |
| RRIRYRPPRLPRPRPRPSHVPRP | -1.58 |
| RRIRYRPPRLPRPRPRPSIGPRP | -0.0122 |
| RRIRYRPPRLPRPRPRPSIIPRP | -0.236 |

| Sequence | shrunken log2 fold change |
| --- | --- |
| RRIRYRPPRLPRPRPRPSKGPRP | -0.203 |
| RRIRYRPPRLPRPRPRPSKNPRP | -0.722 |
| RRIRYRPPRLPRPRPRPSLFPRP | -0.657 |
| RRIRYRPPRLPRPRPRPSLMPRP | -0.556 |
| RRIRYRPPRLPRPRPRPSNLPRP | -0.729 |
| RRIRYRPPRLPRPRPRPSNQPRP | -0.273 |
| RRIRYRPPRLPRPRPRPSPEPRP | -0.458 |
| RRIRYRPPRLPRPRPRPSSCPRP | -0.101 |
| RRIRYRPPRLPRPRPRPSSEPRP | 0.0163 |
| RRIRYRPPRLPRPRPRPSSPPRP | -0.631 |
| RRIRYRPPRLPRPRPRPSTCPRP | -0.687 |
| RRIRYRPPRLPRPRPRPSYSPRP | -0.438 |
| RRIRYRPPRLPRPRPRPTAAPRP | 0.111 |
| RRIRYRPPRLPRPRPRPTATPRP | -0.038 |
| RRIRYRPPRLPRPRPRPTAWPRP | -0.011 |
| RRIRYRPPRLPRPRPRPTAYPRP | -0.537 |
| RRIRYRPPRLPRPRPRPTCEPRP | 0.00952 |
| RRIRYRPPRLPRPRPRPTDLPRP | -0.396 |
| RRIRYRPPRLPRPRPRPTDPPRP | -0.107 |
| RRIRYRPPRLPRPRPRPTDWPRP | -0.314 |
| RRIRYRPPRLPRPRPRPTEHPRP | -0.501 |
| RRIRYRPPRLPRPRPRPTFAPRP | -0.321 |
| RRIRYRPPRLPRPRPRPTGAPRP | 0.136 |
| RRIRYRPPRLPRPRPRPTGLPRP | -0.101 |
| RRIRYRPPRLPRPRPRPTGRPRP | 0.0692 |
